Experimental data from patent US20170320955A1 (IGM BIOSCIENCES A S, published 2017).

T1: Soluble DR4 protein (R&D Systems Catalog #347-DR-100/CF) (human, UniProt O00220 24-239, limits assumed)
T1 construct: Coated on the ELISA plate at 2 ug/mL; also called TRAILR1; Apo2
T1 sequence (looked up): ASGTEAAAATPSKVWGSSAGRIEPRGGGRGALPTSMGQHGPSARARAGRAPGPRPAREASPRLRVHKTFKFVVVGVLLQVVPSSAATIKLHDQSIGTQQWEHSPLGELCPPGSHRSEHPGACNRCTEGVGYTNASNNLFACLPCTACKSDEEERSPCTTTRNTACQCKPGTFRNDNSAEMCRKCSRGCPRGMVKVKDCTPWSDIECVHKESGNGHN

T2: Soluble DcR1 protein (R&D Systems Catalog #630-TR-100/CF) (UniProt O14798 26-221, limits assumed)
T2 construct: Coated on the ELISA plate at 2 ug/mL; also called TRAILR3; decoy receptor DcR1
T2 sequence (looked up): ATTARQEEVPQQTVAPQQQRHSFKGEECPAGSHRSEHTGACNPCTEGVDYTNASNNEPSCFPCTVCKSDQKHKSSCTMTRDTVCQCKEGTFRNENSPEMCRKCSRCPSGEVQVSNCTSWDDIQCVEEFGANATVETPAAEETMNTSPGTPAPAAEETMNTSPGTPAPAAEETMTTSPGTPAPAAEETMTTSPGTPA

T3: Soluble DcR2 protein (R&D Systems Catalog #633-TR-100) (UniProt Q9UBN6 56-211, limits assumed)
T3 construct: Coated on the ELISA plate at 2 ug/mL; also called TRAILR4; decoy receptor DcR2
T3 sequence (looked up): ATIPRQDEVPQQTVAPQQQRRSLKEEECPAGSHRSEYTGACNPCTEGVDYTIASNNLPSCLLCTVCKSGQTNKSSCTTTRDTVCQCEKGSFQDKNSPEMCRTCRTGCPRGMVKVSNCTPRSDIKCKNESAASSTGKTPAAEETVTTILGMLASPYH


Legend:
Assay in all cases: ELISA as in Example 2, receptor coated on the plate
[1] = target: T1, Soluble DR4 protein (R&D Systems …)
Protocol: (§1) DR4 or decoy receptors DcR1 and DcR2. Soluble DRS, DR4, DcR1, or DcR2 protein (R&D Systems Catalog #631-T2-100/CF, 347-DR-100/CF, 630-TR-100/CF, 633-TR-100 respectively) were coated on an ELISA plate at 2 μg/mL in 100 mM NaHCO₃ pH 9.5 overnight at 4° C. A solution of 2% BSA in PBS was used for the blocking and antibody incubation steps. The plate was blocked for 1 hour at room temperature, then incubated with mouse anti-human DRS mAb (Acris Antibodies Catalog #AM31206AF-N) for 1 hour at room temperature. anti-DRS mAb was 3-fold serially diluted to concentrations ranging from 1 to 200 ng/mL. After washing 3 times with PBS plus 0.05% Tween-20, the plate was incubated with rat anti-mouse kappa-HRP (Southern Biotech Catalog #1180-05) for 1 hour at room temperature, protected from light. After washing 3 times with PBS plus 0.05% Tween-20, the plate was incubated with TMB substrate (BD Biosciences Catalog #555214) for 20 minutes at room temperature. The reaction was stopped with 1M H₂SO₄ and absorbance at 450nm was determined using a microtiter plate reader.
(§2) Biotech Catalog #9180-05) or 1:6000 Mouse Anti-Human Kappa-HRP (Southern Biotech Catalog #9230-05) was used for detection.

[2] = target: T2, Soluble DcR1 protein (R&D Systems …)
Protocol: as §1, §2

[3] = target: T3, Soluble DcR2 protein (R&D Systems …)
Protocol: as §1, §2

binding result [1]	binding result [2]	binding result [3]	Binder
no binding	no binding	no binding	Anti-DR5 mAb #2, IgG version (antibody, V domains shown, Human IgG; variable domains put into proprietary IgG vectors (Aragen Biosciences, Lake Pharma); also called DR5 MAb IgG #2; Anti-DRS mAb #2 IgG) VH: QVQLQESGPGLVKPSQTLSLTCTVSGGSISSGDYFWSWIRQLPGKGLECIGHIHNSGTTYYNPSLKSRVTISVDTSKKQFSLRLSSVTAADTAVYYCARDRGGDYYYGMDVWGQGTTVTVSS VL: EIVLTQSPGTLSLSPGERATLSCRASQGISRSYLAWYQQKPGQAPSLLIYGASSRATGIPDRFSGSGSGTDFTLTISRLEPEDFAVYYCQQFGSSPWTFGQGTKVEIK
no binding	no binding	no binding	Anti-DR5 mAb #2, pentameric IgM-J chain version (antibody, V domains shown, Pentameric IgM with J chain; variable domains put into proprietary IgM vectors; also called DR5 MAb IgM #2; IgM Anti-DR5 mAb #2) VH: QVQLQESGPGLVKPSQTLSLTCTVSGGSISSGDYFWSWIRQLPGKGLECIGHIHNSGTTYYNPSLKSRVTISVDTSKKQFSLRLSSVTAADTAVYYCARDRGGDYYYGMDVWGQGTTVTVSS VL: EIVLTQSPGTLSLSPGERATLSCRASQGISRSYLAWYQQKPGQAPSLLIYGASSRATGIPDRFSGSGSGTDFTLTISRLEPEDFAVYYCQQFGSSPWTFGQGTKVEIK
